B1: Sdna3 DNA+ 50 bp (dsDNA)
DNA 1: AGCACCGCTTAAACGCACGTACGCTTTGTTCCCCGCGTTTTAACCGCCAA
DNA 2: TTGGCGGTTAAAACGCGGGGAACAAAGCGTACGTGCGTTTAAGCGGTGCT

Key:
[1] = target: recombinant human histone octamer assembled into mononucleosomes on 250 bp 601 Widom DNA (human) (UniProt Q71DI3); experiment: single-molecule TIRF colocalisation
Halo-Sox2 = Halo-Sox2 (UniProt P48432 1-319); experiment: single-molecule TIRF
Chain of Halo-Sox2 (P48432 whole entry): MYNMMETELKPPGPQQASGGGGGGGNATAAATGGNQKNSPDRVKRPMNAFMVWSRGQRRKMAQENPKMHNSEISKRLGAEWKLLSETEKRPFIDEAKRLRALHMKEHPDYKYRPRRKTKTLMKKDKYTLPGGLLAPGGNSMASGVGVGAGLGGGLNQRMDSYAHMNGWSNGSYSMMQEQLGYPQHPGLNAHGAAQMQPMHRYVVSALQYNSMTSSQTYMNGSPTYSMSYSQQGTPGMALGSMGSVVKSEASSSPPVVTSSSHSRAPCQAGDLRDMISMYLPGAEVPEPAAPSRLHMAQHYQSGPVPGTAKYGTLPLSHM

Row | Molecule | residence time tau2 on MN-6 (state attributed to TF-histone interactions) [1] | binding result (Halo-Sox2)
1 | Halo-Sox2 (recombinant, JF549-labelled) (from UniProt P48432 1-319) (natural protein) | 3.4 s | –
2 | B1 | – | binds
